Data from US20220160842A1, “METHOD OF TREATING INFECTIVE ENDOCARDITIS” (priority 2019, published 2022).

How the values were obtained:
S. aureus (MRSA) = assay: MIC by broth microdilution; type: cell-based, Staphylococcus aureus; details: S. aureus (MRSA), N=74
Experimental: (§1) Minimal inhibitory concentrations (MICs) of exebacase against staphylococci were determined by broth microdilution (BMD) using a nonstandard antimicrobial susceptibility testing (AST) medium comprised of cation-adjusted Mueller Hinton broth (caMHB) supplemented with horse serum (Sigma Aldrich) and dithiothreitol (DTT; Sigma Aldrich) to final concentrations of 25% and 0.5 mM, respectively. This medium, referred to as caMHB-HSD, is approved for use in exebacase AST by the Clinical and Laboratory Standards Institute (CLSI) (CLSI. 2017, Jan. 16-17. AST Subcommittee Working Group Meetings and Plenary. AST Meeting Files & Resources, clsi.org/education/microbiology/ast/ast-meeting-files-resources/. Additional supplementation with 2.5% lysed red blood cells (Remel™, ThermoFisher) was included for analyses of streptococcal isolates, as recommended by CLSI. See CLSI, 2015. Methods for Dilution Antimicrobial Susceptibility Tests for Bacteria That Grow Aerobically, 10th Edition. Clinical and Laboratory Standards Institute, Wayne, Pa.
(§2) Daptomycin (Sigma Aldrich) and vancomycin hydrochloride (Sigma Aldrich) were tested following the reference BMD method for each. See CLSI. 2015. Methods for Dilution Antimicrobial Susceptibility Tests for Bacteria That Grow Aerobically, 10th Edition. Clinical and Laboratory Standards Institute, Wayne, Pa.

S. aureus (MSSA) = assay: MIC by broth microdilution; type: cell-based, Staphylococcus aureus; details: S. aureus (MSSA), N=73
Experimental: as §1, §2

S. lugdunensis = assay: MIC by broth microdilution; type: cell-based, Staphylococcus lugdunensis; details: S. lugdunensis, N=49
Experimental: as §1, §2

S. warneri = assay: MIC by broth microdilution; type: cell-based, Staphylococcus warneri; details: S. warneri, N=23
Experimental: as §1, §2

S. anginosus = assay: MIC by broth microdilution; type: cell-based, Streptococcus anginosus; details: S. anginosus (viridans), N=10
Experimental: as §1, §2

S. mitis = assay: MIC by broth microdilution; type: cell-based, Streptococcus mitis; details: S. mitis (viridans), N=18
Experimental: as §1, §2

S. sanguinis = assay: MIC by broth microdilution; type: cell-based, Streptococcus sanguinis; details: S. sanguinis (viridans), N=15
Experimental: as §1, §2

S. gallolyticus = assay: MIC by broth microdilution; type: cell-based, Streptococcus gallolyticus; details: S. gallolyticus (bovis), N=19
Experimental: as §1, §2

S. pyogenes = assay: MIC by broth microdilution; type: cell-based, Streptococcus pyogenes; details: S. pyogenes (group A), N=100
Experimental: as §1, §2

S. agalactiae = assay: MIC by broth microdilution; type: cell-based, Streptococcus agalactiae; details: S. agalactiae (group B), N=97
Experimental: as §1, §2

S. dysgalactiae = assay: MIC by broth microdilution; type: cell-based, Streptococcus dysgalactiae; details: S. dysgalactiae (group G), N=22
Experimental: as §1, §2

S. pneumoniae = assay: MIC by broth microdilution; type: cell-based, Streptococcus pneumoniae; details: S. pneumoniae, N=59
Experimental: as §1, §2

MRSA strain MW2 [1] = assay: Infective endocarditis rabbit model, CF-301 in series with daptomycin (Example 2); type: in vivo, rabbits
Experimental: The rational for selection of the daptomycin dose is as follows. Daptomycin pilot dose-response experiments were performed over a range from 1 mg/kg to 10 mg/kg, administered intravenously, once daily for 4 days in the infective endocarditis rabbit model described below, which was caused by the MRSA strain, MW2. FIG. 2 depicts data for individual animals, plotted as treatment regimen versus log10 CFU/g tissue (mean±SEM are shown). From these studies, a daptomycin dose-response was defined. […] In the rabbit infective endocarditis model, a daptomycin-alone dose of 4 mg/kg administered intravenously provided about 0.25 to 1.45 log10 reduction in bacterial burden compared to vehicle-treated controls.
A well-described indwelling transcarotid artery-to-left ventricle catheter-induced model of aortic valve infective endocarditis was used in rabbits. See Xiong et al., 2011, AAC, 55:P5325-5330. At 48 hours after catheter placement, infective endocarditis was induced by intravenous inoculums of about 2×10^5 CFU (the induction of ID95 of MRSA strain MW2 in this model). […] Daptomycin administration was continued once a day for 4 days. At 24 hours after the last dose of daptomycin, animals were humanely euthanized and cardiac vegetations, kidneys, and spleens were sterilely removed and quantitatively cultured. Bacterial density for each organ for the different treatment groups were calculated as mean log10 CFU/g of tissue (±95% confidence interval).

MRSA strain MW2 [2] = assay: Left-sided catheter-induced IE model due to MRSA, CF-301 dose strategies plus DAP (Example 4); type: in vivo, rabbits; details: all CF-301 doses given in addition to DAP
Experimental: Briefly, female New Zealand White rabbits (Harlan Laboratories; 2.3 to 2.5 kg body weight) underwent transcarotid-transaortic valve catheterization, and IE was induced by IV infection of ˜1-2×10^5 cfu of MW2 at 48 hours (h) after catheterization. […] See also FIG. 4.
On day 5, animals were sacrificed, and target tissues (cardiac vegetations, kidney and spleen) were removed and quantitatively cultured. Tissue MRSA counts are given as the mean log10 CFU/g of tissue±SD).
A two-tailed Student's t test was used to analyze the tissue MRSA counts between different groups. P values <0.05 were considered significant. No adjustment was made for all the P values reported in this study.

[3] = CF-301 0.09 mg/kg 1 hour prior to the initial dose of DAP 4 mg/kg IV QD x 4 days
[4] = CF-301 0.09 mg/kg 2 hours after the initial dose of DAP 4 mg/kg IV QD x 4 days
[5] = CF-301 0.09 mg/kg 2 hours prior to the initial dose of DAP 4 mg/kg IV QD x 4 days
[6] = CF-301 0.09 mg/kg 4 hours after the initial dose of DAP 4 mg/kg IV QD x 4 days
[7] = CF-301 0.09 mg/kg 4 hours prior to the initial dose of DAP 4 mg/kg IV QD x 4 days
[8] = CF-301 0.09 mg/kg immediately after the initial dose of DAP 4 mg/kg IV QD x 4 days

B1: CF-301: anti-staphylococcal lysin encoded within a prophage of the Streptococcus suis genome, SEQ ID NO: 2 with or without initial methionine (protein, listed as Streptococcus suis)
chain: MTTVNEALNNVRAQVGSGVSVGNGECYALASWYERMISPDATVGLGAGVGWVSGAIGDTISAKNIGSSYNWQANGWTVSTSGPFKAGQIVTLGATPGNPYGHVVIVEAVDGDRLTILEQNYGGKRYPVRNYYSAASYRQQVVHYITPPGTVAQSAPNLAGSRSYRETGTMTVTVDALNVRRAPNTSGEIVAVYKRGESFDYDTVIIDVNGYVWVSYIGGSGKRNYVATGATKDGKRFGNAWGTFK
MIC50 (S. aureus (MRSA)): 0.5 µg/mL | MIC90 (S. aureus (MRSA)): 1 µg/mL | MIC Range (S. aureus (MRSA)): 0.5 to 2 µg/mL | MIC50 (S. aureus (MSSA)): 0.5 µg/mL | MIC90 (S. aureus (MSSA)): 0.5 µg/mL | MIC Range (S. aureus (MSSA)): 0.25 to 1 µg/mL | MIC50 (S. lugdunensis): 1 µg/mL | MIC90 (S. lugdunensis): 1 µg/mL | MIC Range (S. lugdunensis): 0.25 to 2 µg/mL | MIC50 (S. warneri): 0.5 µg/mL | MIC90 (S. warneri): 1 µg/mL | MIC Range (S. warneri): 0.06 to 1 µg/mL | MIC50 (S. anginosus): 32 µg/mL | MIC90 (S. anginosus): 64 µg/mL | MIC Range (S. anginosus): 1 to 64 µg/mL | MIC50 (S. mitis): 2 µg/mL | MIC90 (S. mitis): 8 µg/mL | MIC Range (S. mitis): 0.5 to 64 µg/mL | MIC50 (S. sanguinis): 4 µg/mL | MIC90 (S. sanguinis): 16 µg/mL | MIC Range (S. sanguinis): 2 to 32 µg/mL | MIC50 (S. gallolyticus): 64 µg/mL | MIC90 (S. gallolyticus): >512 µg/mL | MIC50 (S. pyogenes): 1 µg/mL | MIC90 (S. pyogenes): 2 µg/mL | MIC Range (S. pyogenes): 0.5 to 4 µg/mL | MIC50 (S. agalactiae): 1 µg/mL | MIC90 (S. agalactiae): 2 µg/mL | MIC Range (S. agalactiae): 0.25 to 4 µg/mL | MIC50 (S. dysgalactiae): 1 µg/mL | MIC90 (S. dysgalactiae): 2 µg/mL | MIC Range (S. dysgalactiae): 1 to 2 µg/mL | MIC50 (S. pneumoniae): 4 µg/mL | MIC90 (S. pneumoniae): 32 µg/mL | MIC Range (S. pneumoniae): 1 to 64 µg/mL | MRSA density, Mean Log10 CFU/g tissue ± STD, Kidneys (MRSA strain MW2 [1]; [3]): 3.53 ± 0.59 Log10 CFU/g tissue | MRSA density, Mean Log10 CFU/g tissue ± STD, Spleen (MRSA strain MW2 [1]; [3]): 3.55 ± 0.74 Log10 CFU/g tissue | MRSA density, Mean Log10 CFU/g tissue ± STD, Vegetation (MRSA strain MW2 [1]; [3]): 4.16 ± 0.82 Log10 CFU/g tissue | MRSA density, Mean Log10 CFU/g tissue ± STD, Kidneys (MRSA strain MW2 [1]; [4]): 2.29 ± 0.87 Log10 CFU/g tissue | MRSA density, Mean Log10 CFU/g tissue ± STD, Spleen (MRSA strain MW2 [1]; [4]): 2.23 ± 1.09 Log10 CFU/g tissue | MRSA density, Mean Log10 CFU/g tissue ± STD, Vegetation (MRSA strain MW2 [1]; [4]): 2.25 ± 1.39 Log10 CFU/g tissue | MRSA density, Mean Log10 CFU/g tissue ± STD, Kidneys (MRSA strain MW2 [1]; [5]): 3.48 ± 0.47 Log10 CFU/g tissue | MRSA density, Mean Log10 CFU/g tissue ± STD, Spleen (MRSA strain MW2 [1]; [5]): 3.31 ± 0.57 Log10 CFU/g tissue | MRSA density, Mean Log10 CFU/g tissue ± STD, Vegetation (MRSA strain MW2 [1]; [5]): 3.54 ± 0.68 Log10 CFU/g tissue | MRSA density, Mean Log10 CFU/g tissue ± STD, Kidneys (MRSA strain MW2 [1]; [6]): 3.78 ± 0.51 Log10 CFU/g tissue | MRSA density, Mean Log10 CFU/g tissue ± STD, Spleen (MRSA strain MW2 [1]; [6]): 3.49 ± 0.33 Log10 CFU/g tissue | MRSA density, Mean Log10 CFU/g tissue ± STD, Vegetation (MRSA strain MW2 [1]; [6]): 4.31 ± 0.89 Log10 CFU/g tissue | MRSA density, Mean Log10 CFU/g tissue ± STD, Kidneys (MRSA strain MW2 [1]; [7]): 2.97 ± 0.32 Log10 CFU/g tissue | MRSA density, Mean Log10 CFU/g tissue ± STD, Spleen (MRSA strain MW2 [1]; [7]): 3.18 ± 0.35 Log10 CFU/g tissue | MRSA density, Mean Log10 CFU/g tissue ± STD, Vegetation (MRSA strain MW2 [1]; [7]): 3.45 ± 0.63 Log10 CFU/g tissue | MRSA density, Mean Log10 CFU/g tissue ± STD, Kidneys (MRSA strain MW2 [1]; [8]): 2.77 ± 0.65 Log10 CFU/g tissue | MRSA density, Mean Log10 CFU/g tissue ± STD, Spleen (MRSA strain MW2 [1]; [8]): 2.60 ± 0.17 Log10 CFU/g tissue | MRSA density, Mean Log10 CFU/g tissue ± STD, Vegetation (MRSA strain MW2 [1]; [8]): 3.23 ± 0.36 Log10 CFU/g tissue | MRSA densities in all three target tissues as compared to the controls and daptomycin alone (MRSA strain MW2 [1]; single dose of CF-301 added to daptomycin regimen, all time-points tested): significantly reduced | further reduction of MRSA densities in all target tissues vs DAP alone (MRSA strain MW2 [2]): about 3 log10 cfu/g | reduction of MRSA densities in all target tissues vs vehicle control groups (MRSA strain MW2 [2]): about 6 log10 cfu/g
